Here are results for one molecule from PMC5687031 (Molecular Biology of the Cell, 2017).

Data set [1] has as its target T1, Spc110^891-944 (S. cerevisiae, UniProt P32380 891-944).
T1 sequence (looked up): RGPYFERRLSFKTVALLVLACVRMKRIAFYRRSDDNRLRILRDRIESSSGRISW
Put plainly: SAXS.

The target of data set [2] is T1, Spc110^891-944. Put plainly: crystal structure.
The data set “crystal structure” concerns the molecule itself. The experiment in a line: crystal structure.

B1: Kluyveromyces lactis calmodulin (natural protein)
chain: not shown
modifications: disulfide between Cys79 of the two calmodulins in the crystal
For the molecule B1, the “stoichiometry N” value with Spc110^891-944 [1] is 1 calmodulin per Spc110^891-944; in the data set with Spc110^891-944 [2], 1 calmodulin per Spc110 CBD (2:2); in “crystal structure” it was 2 calmodulin chains.

What is called stoichiometry N is a count of units in the complex or per binding partner.
